Data set [1] in a line: Single-dose serum pharmacokinetics of CRF-BP-Fc in mice (sandwich ELISA). Type of data set: in vivo, mouse. The conditions noted are these: two doses (15 and 45 μg) in mice. Here is the method: (§1) FIG. 2A and FIG. 2B: Serum concentration of CRF-BP-Fc. FIG. 2A: A CRF-BP-Fc fusion protein (SEQ ID NO:16), composed of CRF-BP (25-322) fused to mouse IgG1 Fc was administered to C57B16 mice at 2 doses (15 μg/mouse and 45 μg/mouse). […] FIG. 2B: Freezing in response to mild footshock, a mouse model of stress, was reduced in mice treated with the CRF-BP-Fc fusion protein on the day of treatment (*<0.05 from vehicle-treated mice).
Mice are bled at 1, 6, and 12 hours and at 1, 2, 4, 6, 8, and 12 days post-injection by retro-orbital bleeding. […] The present blood sampling times presuppose a half-life value closer to those reported for human IgG in the mouse.
Concentrations in sera over time of CRF-BP-Fc or CRF-BP-albumin constructs are measured with a sandwich ELISA, which has already been established with a lower limit of detection of 1 ng/ml in serum. This ELISA assay consists of immobilized biotinylated CRF to capture serum CRF-BP-Fc on avidin plates followed by detection with a commercial anti-Fc antibody. This assay is used to monitor the serum concentration of CRF-BP-Fc in preliminary studies. CRF-BP-albumin constructs are detected with the same design using antibodies to albumin and blocking reagents designed for albumin ELISA quantification (e.g., Serum Albumin Sandwich ELISA Kit from LifeSpan BioSciences). […]
Background: ELISA stands for enzyme-linked immunosorbent assay.

The test system of another data set is C57BL/6J mice. Nature of the data set: Shock-induced freezing test (mild footshock stress model). Type of data set: in vivo, mouse. Here is the method: as §1
SIF is a defensive behavior observed in response to fearful stimuli exposure (163), and it is used to determine the efficacy of the constructs under study (FIG. 1B). Testing takes place in a Mouse NIR Video Fear Conditioning System (Med Associates, St. Albans, Vt.) housed in soundproof boxes. The session consists of a 2-min habituation period followed by three 1.5 mA footshocks lasting 1 sec and separated by 20 sec. Duration of freezing behavior is measured for 15 min. Freezing behavior, i.e., the absence of all voluntary movements except breathing, is measured in all sessions by real-time digital video recordings calibrated to distinguish between subtle movements such as whisker twitch or tail flick and freezing behavior. This test is performed at days 1 and 4 after administration. Before and after footshock, mice are bled as outlined above for determination of serum corticosterone and compound levels. […]

In a further data set the test system is corticosterone (CORT). Nature of the data set: Serum corticosterone (CORT) under repeated footshock stress. Type of data set: in vivo. The conditions noted are these: single administration 45 μg/mouse, C57Bl6 mice. On the procedure: FIG. 3: Administration of a CRF-BP-Fc fusion (SEQ ID NO: 16) delayed the increased in basal serum glucocorticoid levels (“CORT” in pg/mL×1000), resulting from repeated stress. Repeated delivery of footshock to mice (dotted vertical lines indicate times for delivery of footshock) results in elevated baseline serum corticosterone (CORT) level in C57B16 mice (black circles), indicative of a chronic stress state. A single administration of CRF-BP-Fc fusion protein at a dose of 45 μg/mouse delayed such increase of baseline serum CORT (black squares). O=vehicle-treated mice; 45=CRF-BP-Fc-treated mice at 45 μg/mouse; *=p<0.05 from […]; CORT: plasma corticosterone levels (ng/ml).
CRFBP-Fc fusion protein was administered to C57B16 mice at a dose of 300 μg/mouse. Data points represent CORT concentration before and after injection of CRFBP-Fc containing IgG2-derived Fc (drug) and at 3 time points preceding repeated footshocks (FS). […] 3 hr after injection compared to vehicle group (**p<0.01, Fisher's LSD).
Stimulated CORT concentrations after injection of CRFBP-Fc containing IgG2-derived Fc and at 3 time points after repeated footshocks (FS). […] 3 hr after injection, FS1, and FS2 compared to vehicle group, respectively (*p<0.05, ****p<0.0001, Fisher's LSD). […]

For the next data set, the target named is T1, CRF (Homo sapiens, UniProt P06850).
T1 construct: Biotinylated CRF was immobilized on an avidin-coated ELISA plate
T1 sequence (P06850 154-194 limits assumed): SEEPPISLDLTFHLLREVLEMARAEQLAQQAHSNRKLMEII
The experiment in a line: CRF binding ELISA (biotinylated CRF on avidin-coated plate). The conditions noted are these: data not shown. The text has this:
Biotinylated CRF was immobilized on an avidin-coated ELISA plate. […] OD=optical density.

Data on one molecule can be found in US20190382462A1, “METHODS AND COMPOSITIONS FOR TREATING HPA HYPERACTIVITY” (priority 2017, published 2019).

B1: CRF-BP-Fc (SEQ ID NO:16): fusion protein composed of CRF-BP (25-322) fused to mouse IgG1 Fc (protein, listed as Mus musculus)
chain: MSPNFKLQCHFILIFLTALRGESRYLELREAADYDPFLLFSANLKRELAGEQPYRRALRCLDMLSLQGQFTFTADRPQLHCAAFFISEPEEFITIHYDQVSIDCQGGDFLKVFDGWILKGEKFPSSQDHPLPSAERYIDFCESGLSRRSIRSSQNVAMIFFRVHEPGNGFTLTIKTDPNLFPCNVISQTPNGKFTLVVPHQHRNCSFSIIYPVVIKISDLTLGHVNGLQLKKSSAGCEGIGDFVELLGGTGLDPSKMTPLADLCYPFHGPAQMKVGCDNTVVRMVSSGKHVNRVTFEYRQLEPYELENPNGNSIGEFCLSGLTGGCKPCICTVPEVSSVFIFPPKPKDVLTITLTPKVTCVVVDISKDDPEVQFSWFVDDVEVHTAQTQPREEQFNSTFRSVSELPIMHQDWLNGKEFKCRVNSAAFPAPIEKTISKTKGRPKAPQVYTIPPPKEQMAKDKVSLTCMITDFFPEDITVEWQWNGQPAENYKNTQPIMDTDGSYFVYSKLNVQKSNWEAGNTFTCSVLHEGLHNHHTEKSLSHSPGK
Turning to B1, the “pharmacokinetic profile from serum concentrations” value in data set [1] is recorded as “linear pharmacokinetics with a biexponential profile”. In addition, the “circulating serum concentrations effective in reducing behavioral responses to stress” value with C57BL/6J mice (mice) lay within 1 to 3 µg/mL. In addition, the “freezing in response to mild footshock” value in the data set on C57BL/6J mice (single administration, day of treatment, vs vehicle-treated mice) is reported as “reduced”. Moreover, in the data set on corticosterone (CORT), the “increase in basal serum glucocorticoid (CORT) levels resulting from repeated stress” value is “delayed”. Besides, the “effect of fusion to mouse IgG1 Fc on CRF binding” value with CRF is “did not alter CRF binding”.
